Measurements from patent US20180362652A1 (Biogen, published 2018).

Key:
[1] = molecular target: T1, cynomolgus monkey BDCA2 (full-length, cell surface, E73 SNP form) (cynomolgus monkey, UniProt Q8WTT0 1-213 (human entry)); test: direct binding FACS, conditioned medium on CHO cells co-expressing cynomolgus BDCA2 and FcεRIγ
T1 construct: also called cyno BDCA2; surface cynomolgus monkey BDCA2
T1 chain: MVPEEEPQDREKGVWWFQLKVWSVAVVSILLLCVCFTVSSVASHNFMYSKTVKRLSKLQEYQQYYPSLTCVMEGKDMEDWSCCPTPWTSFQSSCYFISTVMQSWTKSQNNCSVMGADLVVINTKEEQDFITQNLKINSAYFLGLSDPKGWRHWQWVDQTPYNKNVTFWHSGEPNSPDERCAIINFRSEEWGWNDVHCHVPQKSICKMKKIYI
Description: (§1) Conditioned medium was assayed by direct binding FACS on stably transfected DG44 CHO cells co-expressing full-length BDCA2 and FcεRIγ cDNAs (human or cynomolgus monkey), (relevant expression vectors are human BDCA2/FcεRIγ: pEAG2456, cyno BDCA2/FcεRIγ: pEAG2668).

[2] = molecular target: T1, cynomolgus monkey BDCA2 (full-length, …); test: direct binding FACS, conditioned medium on CHO cells co-expressing BDCA2 and FcεRIγ
Description: as §1

[3] = molecular target: T2, human BDCA2 (full-length, cell surface) (human, UniProt Q8WTT0 1-213); test: as above
T2 construct: also called huBDCA2; surface human BDCA2
T2 sequence: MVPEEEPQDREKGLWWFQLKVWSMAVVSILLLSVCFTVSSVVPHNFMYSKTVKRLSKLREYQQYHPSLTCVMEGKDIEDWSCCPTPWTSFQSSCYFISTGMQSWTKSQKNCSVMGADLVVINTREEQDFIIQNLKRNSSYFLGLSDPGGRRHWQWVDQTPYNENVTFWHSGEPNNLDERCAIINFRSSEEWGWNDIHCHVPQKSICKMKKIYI
Description: as §1

[4] = molecular target: T3, monomeric huBDCA2 ectodomain (human, UniProt Q8WTT0 45-213); test: Octet, mAb from conditioned medium on anti-human Fc tips, monomeric huBDCA2 in solution
T3 construct: Prepared by proteolytic cleavage of the purified muIgG2a Fc-huBDCA2 fusion protein (pEAG2423); also called human BDCA2 ectodomain; human BDCA2 ECD
T3 sequence: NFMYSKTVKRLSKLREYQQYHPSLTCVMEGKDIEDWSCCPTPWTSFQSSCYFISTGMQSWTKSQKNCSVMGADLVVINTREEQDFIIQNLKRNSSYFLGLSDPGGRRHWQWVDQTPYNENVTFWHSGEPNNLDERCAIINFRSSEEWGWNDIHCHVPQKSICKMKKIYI
Description: Backmutation to the unpaired cysteine, i.e., S95C, was constructed by site-directed mutagenesis producing plasmid pYL749. Variants S95T, S95A, and S95V were constructed by site-directed mutagenesis producing plasmids pYL750, pYL751, and pYL752, respectively. The full-length light chain cDNA sequences in the resultant plasmids were confirmed by DNA sequencing. […] Conditioned medium was harvested at 2 days post-transfection. […] Conditioned medium containing the C95 variant mAbs was assayed by Octet for binding to human BDCA2 ectodomain. Antibodies from conditioned medium from transiently transfected cells were bound to anti-human Fc tips, then monomeric huBDCA2 was flowed over the Octet tips, to examine binding and dissociation.

[5] = molecular target: T1, cynomolgus monkey BDCA2 (full-length, …); test: direct binding FACS, conditioned medium on CHO cells co-expressing cynomolgus BDCA2 and FcεRIγ; column C (midpoint) of the printed 4-P fit, X in ng/ml; A 4.01, B 1.09, D 68.9, R^2 0.998
Description: as §1

[6] = molecular target: T2, human BDCA2 (full-length, cell surface); test: direct binding FACS, conditioned medium on CHO cells co-expressing human BDCA2 and FcεRIγ; column C (midpoint) of the printed 4-P fit, X in ng/ml; A 6.16, B 0.839, D 115, R^2 0.998
Description: as §1

[7] = molecular target: T1, cynomolgus monkey BDCA2 (full-length, …); test: direct binding FACS, conditioned medium on CHO cells co-expressing cynomolgus BDCA2 and FcεRIγ; column C (midpoint) of the printed 4-P fit, X in ng/ml; A 2.43, B 0.789, D 70.7, R^2 0.999
Description: as §1

[8] = molecular target: T2, human BDCA2 (full-length, cell surface); test: direct binding FACS, conditioned medium on CHO cells co-expressing human BDCA2 and FcεRIγ; column C (midpoint) of the printed 4-P fit, X in ng/ml; A 5.67, B 0.857, D 96.6, R^2 0.999
Description: as §1

[9] = molecular target: T2, human BDCA2 (full-length, cell surface); test: direct binding FACS on surface BDCA2, conditioned medium
[10] = molecular target: T3, monomeric huBDCA2 ectodomain; test: Octet, mAb on anti-human Fc tips, monomeric huBDCA2 in solution
Description: Site-directed mutagenesis was performed using Agilent's QuikChange II mutagenesis kit following the manufacturer's recommended protocol. […] Mutated plasmids were identified by screening for the introduced restriction site changes. The full-length light chain cDNA sequences in the resultant plasmids were confirmed by DNA sequencing. […] Conditioned medium was harvested at 2 days post-transfection. […] Antibodies from conditioned medium from transiently transfected cells were bound to anti-human Fc tips, then monomeric huBDCA2 was flowed over the Octet tips, to examine binding and dissociation.

B1: hu24F4 H2/L1 (antibody, V domains shown)
VH: EVQLVESGGGLVKPGGSLRLSCAASGFTFSTYTMSWVRQAPGKGLEWVSTISPGDSSTIYYADSVKGRFTISRDNAKNSLYLQMNSLRAEDTAVYYCARDIYYNYGAWFAYWGQGTLVTVSS
VL: DIQLTQSPSSLSASVGDRVTITCKASQSVDYDGDSYMNWYQQKPGKAPKLLIYAASTLESGVPSRFSGSGSGTDFTLTISSLQPEDFATYYCQQSNEDPRTFGQGTKVEIK
notes: Humanized variant, human IgG1/kappa, conditioned medium of 293E cells; also called H2 series of hu24F4
Q: Does B1 bind [1]?
A: no binding (tested: about 7000 ng/ml)

B2: hu24F4 H4/L2 (antibody, V domains shown)
VH: DVQLVESGGGLVKPGGSLRLSCAASGFTFSTYTMSWVRQAPGKGLEWVATISPGDSFGYYYPDSVQGRFTISRDNAKNSLYLQMNSLRAEDTAVYYCTRDIYYNYGAWFAYWGQGTLVTVSS
VL: DIQLTQSPSSLSVSVGDRATISCKASQSVDYDGDSYMNWYQQKPGKAPKLLIYAASTLESGVPSRFSGSGSGTDFTLTISSVQPEDFATYYCQQSNEDPRTFGQGTKVEIK
notes: Humanized variant, human IgG1/kappa, conditioned medium of 293E cells; also called H4 series of hu24F4
Q: Does B2 bind [2]?
A: binds

Q: Does B2 bind [3]?
A: binds

Q: Does B2 bind [4]?
A: binds

B3: hu24F4 H5/L1 (antibody, V domains shown)
VH: DVQLVQSGGGLVKPGGSLRLSCAASGFTFSTYTMSWVRQAPGKGLEWVATISPGDSFGYYYPDSVQGRFTISRDNAKNSLYLQMNRLRAEDTAVYYCTRDIYYNYGAWFAYWGRGTLVTVSS
VL: DIQLTQSPSSLSASVGDRVTITCKASQSVDYDGDSYMNWYQQKPGKAPKLLIYAASTLESGVPSRFSGSGSGTDFTLTISSLQPEDFATYYCQQSNEDPRTFGQGTKVEIK
notes: Humanized variant, human IgG1/kappa, conditioned medium of 293E cells; also called H5 series of hu24F4
Q: B3 was tested. Which EC50 [5] did it give?
A: 0.228 µg/mL

Q: What about the EC50 [6] of the same binder?
A: 0.309 µg/mL

B4: hu24F4 H5/L2 (antibody, V domains shown)
VH: DVQLVQSGGGLVKPGGSLRLSCAASGFTFSTYTMSWVRQAPGKGLEWVATISPGDSFGYYYPDSVQGRFTISRDNAKNSLYLQMNRLRAEDTAVYYCTRDIYYNYGAWFAYWGRGTLVTVSS
VL: DIQLTQSPSSLSVSVGDRATISCKASQSVDYDGDSYMNWYQQKPGKAPKLLIYAASTLESGVPSRFSGSGSGTDFTLTISSVQPEDFATYYCQQSNEDPRTFGQGTKVEIK
notes: as for B3
Q: Which results are given for B4?
A: binding result [2]: binds; binding result [3]: binds; binding result [4]: binds

B5: hu24F4 H6/L1 (antibody, V domains shown)
VH: DVQLVESGGGLVKPGGSLRLSCAASGFTFSTYTMSWVRQAPGKGLEWVATISGGNNYGYSYPDSVKGRFTISRDNAKNSLYLQMNSLRAEDTAVYYCTRDIYYNYGAWFAYWGQGTLVTVSS
VL: DIQLTQSPSSLSASVGDRVTITCKASQSVDYDGDSYMNWYQQKPGKAPKLLIYAASTLESGVPSRFSGSGSGTDFTLTISSLQPEDFATYYCQQSNEDPRTFGQGTKVEIK
notes: Humanized variant, human IgG1/kappa, conditioned medium of 293E cells; also called H6 series of hu24F4
Q: What does the source list for B5?
A: EC50 [7]: 0.501 µg/mL; EC50 [8]: 0.359 µg/mL

B6: hu24F4 H0/L1 (antibody, V domains shown)
VH: EVQLVESGGGLVKPGGSLRLSCAASGFTFSTYTMSWVRQAPGKGLEWVSAISGSGGSTYYADSVKGRFTISRDNAKNSLYLQMNSLRAEDTAVYYCARDIYYNYGAWFAYWGQGTLVTVSS
VL: DIQLTQSPSSLSASVGDRVTITCKASQSVDYDGDSYMNWYQQKPGKAPKLLIYAASTLESGVPSRFSGSGSGTDFTLTISSLQPEDFATYYCQQSNEDPRTFGQGTKVEIK
notes: Humanized variant, human IgG1/kappa, conditioned medium of 293E cells; also called H0 series of hu24F4
Q: Does B6 bind [1]?
A: no binding (tested: about 6000 ng/ml)

B7: hu24F4 H1/L1 (antibody, V domains shown)
VH: EVQLVESGGGLVKPGGSLRLSCAASGFTFSTYTMSWVRQAPGKGLEWVSTISPGDSFGYYPDSVKGRFTISRDNAKNSLYLQMNSLRAEDTAVYYCARDIYYNYGAWFAYWGQGTLVTVSS
VL: DIQLTQSPSSLSASVGDRVTITCKASQSVDYDGDSYMNWYQQKPGKAPKLLIYAASTLESGVPSRFSGSGSGTDFTLTISSLQPEDFATYYCQQSNEDPRTFGQGTKVEIK
notes: Humanized variant, human IgG1/kappa, conditioned medium of 293E cells; also called H1 series of hu24F4
Q: Does B7 bind [1]?
A: no binding (tested: about 5000 ng/ml)

B8: hu24F4 H1/L2 (antibody, V domains shown)
VH: EVQLVESGGGLVKPGGSLRLSCAASGFTFSTYTMSWVRQAPGKGLEWVSTISPGDSFGYYPDSVKGRFTISRDNAKNSLYLQMNSLRAEDTAVYYCARDIYYNYGAWFAYWGQGTLVTVSS
VL: DIQLTQSPSSLSVSVGDRATISCKASQSVDYDGDSYMNWYQQKPGKAPKLLIYAASTLESGVPSRFSGSGSGTDFTLTISSVQPEDFATYYCQQSNEDPRTFGQGTKVEIK
notes: as for B7
Q: Does B8 bind [2]?
A: no binding

Q: Does B8 bind [3]?
A: no binding

B9: ch24F4 C95S variant (antibody, human IgG1, kappa, V domains shown)
VH: DVKLVESGGGLVKPGGSLKLSCAASGFTFSTYTMSWVRQTPEKRLEWVATISPGDSFGYYYPDSVQGRFTISRDNAKNTLFLQMSSLKSEDTAMYYCTRDIYYNYGAWFAYWGQGTLVTVSA
VL: DIVLTQSPASLAVSLGQRATISCKASQSVDYDGDSYMNWYQQKPGQPPKLLIYAASTLESGVPARFSGSGSGTDFTLNIHPVEEEDAATYYCQQSNEDPRTFGGGTKLEIKR
notes: pYL672 with pEAG2678; conditioned medium of 293E cells
Q: Which results are given for B9?
A: binding result [9]: binds; binding result [10]: binds

B10: ch24F4 C95T variant (antibody, human IgG1, kappa, V domains shown)
VH: DVKLVESGGGLVKPGGSLKLSCAASGFTFSTYTMSWVRQTPEKRLEWVATISPGDSFGYYYPDSVQGRFTISRDNAKNTLFLQMSSLKSEDTAMYYCTRDIYYNYGAWFAYWGQGTLVTVSA
VL: DIVLTQSPASLAVSLGQRATISCKASQSVDYDGDSYMNWYQQKPGQPPKLLIYAASTLESGVPARFSGSGSGTDFTLNIHPVEEEDAATYYCQQTNEDPRTFGGGTKLEIKR
notes: pYL672 with pEAG2679; conditioned medium of 293E cells
Q: Does B10 bind [9]?
A: binds

Q: Does B10 bind [10]?
A: binds
